Data on 17 molecules can be found in article PMC4242096 (Nature structural & molecular biology, 2013).

For orientation: Kd means a measure of binding affinity in units of concentration. As usually defined, the stoichiometry N is a count of units in the complex or per binding partner.

Non-standard residues stand in square brackets, D forms with d. No end group written: not given here. pY = N[C@@H](Cc1ccc(OP(=O)(O)O)cc1)C(=O)O; pT = C[C@@H](OP(=O)(O)O)[C@H](N)C(=O)O; pS = N[C@@H](COP(=O)(O)O)C(=O)O

First the molecules themselves.
B1: S. cerevisiae Cks (Cks1), wild type (natural protein, UniProt P20486 1-150, looked up)
chain: MYHHYHAFQGRKLTDQERARVLEFQDSIHYSPRYSDDNYEYRHVMLPKAMLKVIPSDYFNSEVGTLRILTEDEWRGLGITQSLGWEHYECHAPEPHILLFKRPLNYEAELRAATAAAQQQQQQQQQQQQQQQQHQTQSISNDMQVPPQIS

Experiment [1] has as its target phosphorylated Cdc6^1–48 (UniProt P09119). As to the kind of experiment: ITC. (In general: ITC needs no label: the signal is the heat of the interaction.)
Experiment [2] has as its target T1, S. cerevisiae Cks (Cks1) (Saccharomyces cerevisiae, UniProt P20486).
T1 sequence (P20486 1-150): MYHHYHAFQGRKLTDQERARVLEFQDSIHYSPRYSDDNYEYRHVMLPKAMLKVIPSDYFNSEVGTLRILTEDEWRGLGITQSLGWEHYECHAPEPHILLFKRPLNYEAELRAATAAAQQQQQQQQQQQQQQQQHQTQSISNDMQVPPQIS
As to the kind of experiment: Isothermal titration calorimetry. The conditions noted are these: ITC; for Cks1 Kd (µM): phosphorylated Cdk substrate peptides, value ± error as printed. The format is binding.

Experiment [3] deals with phosSic1ΔC ΔC (Saccharomyces cerevisiae) (UniProt P38634). The conditions noted are these: cited from earlier work.
phosSic1ΔC ΔC (Saccharomyces cerevisiae), sequence (P38634 1-215, stated change not applied): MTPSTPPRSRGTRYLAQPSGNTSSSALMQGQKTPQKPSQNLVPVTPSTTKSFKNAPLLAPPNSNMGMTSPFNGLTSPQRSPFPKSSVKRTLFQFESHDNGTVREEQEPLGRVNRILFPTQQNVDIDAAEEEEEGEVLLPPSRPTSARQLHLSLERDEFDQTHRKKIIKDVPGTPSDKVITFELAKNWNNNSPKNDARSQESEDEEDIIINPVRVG
Experiment [4] addresses phosSic1 N-terminus N-terminus (Saccharomyces cerevisiae) (UniProt P38634). Conditions: cited from earlier work.
The target of experiment [5] is T2, Cdc6^(1–48;T23A T39A S43A), only T7 phosphorylated (UniProt P09119 1-48, T23A | T39A | S43A, only T7 phosphorylated).
T2 chain (looked up): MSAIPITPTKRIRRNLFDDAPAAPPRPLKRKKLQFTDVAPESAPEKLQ
In words: ITC.

Experiment [6] has as its target T3, Cdc6^(1–48;T7A T39A S43A), only T23 phosphorylated (UniProt P09119 1-48, T7A | T39A | S43A, only T23 phosphorylated).
T3 chain (looked up): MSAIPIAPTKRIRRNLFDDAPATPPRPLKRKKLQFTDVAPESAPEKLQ
As to the kind of experiment: ITC.

In experiment [7] the target is B1. As to the kind of experiment: ITC.

phosSic1 N-terminus N-terminus (Saccharomyces cerevisiae), sequence (P38634 1-100): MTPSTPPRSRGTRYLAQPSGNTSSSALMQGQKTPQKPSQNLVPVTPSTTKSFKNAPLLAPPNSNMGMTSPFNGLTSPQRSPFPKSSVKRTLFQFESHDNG

Consider “S. cerevisiae Cks (Cks1), wild type (from UniProt P20486 1-150) (natural protein)”, for which, in experiment [1], the Kd was determined as 9.8 µM and the stoichiometry N worked out at 2.

Take SAIPI[pY]PTK [phosCdc6^2–10; pT7pY]: the “Cks1 Kd (µM)” value in experiment [2] is reported as “no heat”.

With “phosCdc6^1–48: purified N-terminal domain of Cdc6 (residues 1–48) phosphorylated with recombinant Cdk (MSAIPI[pT]PTKRIRRNLFDDAPA[pT]PPRPLKRKKLQFTDV[pT]PES[pS]PEKLQ)”, the “stoichiometry parameter n (Cks1 molecules per Cdc6 molecule)” value in experiment [2] (data fit to a one site model) is on record as “≈ 2”.

On to Cks1 (from UniProt P20486), for which the Kd in experiment [3] was 20 µM; in experiment [4] it was 11 µM.

For SAIPI[pS]PTK [phosCdc6^2–10; pT7pS], in experiment [2], the “Cks1 Kd (µM)” value is “no heat”.

With B1, the “stoichiometry N” value in experiment [5] and in experiment [6] was about 1 each time.

B2: phosCdc6^2–8 (peptide)
peptide: SAIPI[pT]P
For the molecule B2, the Kd in experiment [7] amounted to 62 ± 2 µM.

B3: phosSwe1^369–376 (peptide)
peptide: EEIS[pT]PTR
Molecule B3 yielded a Kd in experiment [7] of 160 ± 70 µM.

B4: phosSic1^(2–9; P7K) (peptide)
peptide: TPS[pT]PKRS
Molecule B4 returned a Kd in experiment [7] of 120 ± 20 µM.

B5: phosSic1^(2–9; P3Y) (peptide)
peptide: TYS[pT]PPRS
For B5, in experiment [7], the Kd was determined as 90 ± 50 µM.

B6: phosCdc6^3–8 (peptide)
peptide: AIPI[pT]P
On to B6, for which the affinity in experiment [7], expressed as Kd, was 81 ± 6 µM.

B7: phosCdc6^3–9 (peptide)
peptide: AIPI[pT]PT
B7 registered a Kd in experiment [7] of 61 ± 9 µM.

B8: phosCdc6^2–10 (peptide)
peptide: SAIPI[pT]PTK
B8: the affinity in experiment [7], expressed as Kd, was 130 ± 60 µM.

B9: phosSic1^2–9 (peptide)
peptide: TPS[pT]PPRS
B9: in experiment [7], the Kd stood at 95 ± 8 µM.

B10: phosSic1^(2–9; P7T) (peptide)
peptide: TPS[pT]PTRS
As to B10, the affinity in experiment [7], expressed as Kd, was 70 ± 20 µM.

B11: phosSwe1^192–199 (peptide)
peptide: RIPE[pT]PVK
B11 showed a dissociation constant (Kd) in experiment [7] of 60 ± 10 µM.

B12: phosSwe1^117–124 (peptide)
peptide: ESVT[pT]PIT
In the case of B12, in experiment [7], the Kd turned out to be 170 ± 90 µM.
